Experimental data from the Immune Epitope Database (IEDB).

Assays:
HLA-A*26:02 = assay: IEDB peptide-MHC binding, purified MHC/competitive/fluorescence; filed as Kd, often an IC50 or EC50 that approximates it; ≥ and ≤ were set here for values at or beyond the usual limits of such assays
HLA-B*18:01 [1] = assay: as above
HLA-B*15:17 = assay: as above
HLA-B*40:01 = assay: IEDB peptide-MHC binding, purified MHC/direct/fluorescence; filed as Kd, often an IC50 or EC50 that approximates it; ≥ and ≤ were set here for values at or beyond the usual limits of such assays
HLA-B*27:05 = assay: as above
HLA-B*07:02 = assay: as above
HLA-B*57:01 [2] = assay: as above; conditions: source organism: Influenza A virus
HLA-A*23:01 = assay: as above; conditions: source organism: Influenza A virus
HLA-B*08:01 = assay: as above
HLA-B*58:01 = assay: as above
HLA-A*69:01 = assay: as above
HLA-A*26:01 = assay: as above
HLA-A*68:02 = assay: as above; conditions: source organism: Influenza A virus
HLA-A*11:01 = assay: as above
HLA-B*46:01 = assay: as above
HLA-A*02:01 = assay: as above
HLA-A*24:03 = assay: as above
HLA-A*31:01 = assay: as above
HLA-A*24:02 = assay: as above
HLA-A*01:01 [3] = assay: as above
HLA-B*44:02 = assay: as above
HLA-B*15:01 [4] = assay: as above
HLA-A*03:01 = assay: as above
HLA-B*08:02 = assay: as above
HLA-A*02:11 [5] = assay: IEDB peptide-MHC binding, purified MHC/competitive/fluorescence; filed as Kd, often an IC50 or EC50 that approximates it; ≥ and ≤ were set here for values at or beyond the usual limits of such assays; conditions: source organism: Pasteurella multocida subsp. multocida str. Pm70
HLA-A*02:12 = assay: as above; conditions: source organism: Pasteurella multocida subsp. multocida str. Pm70
HLA-A*02:06 = assay: as above
HLA-A*02:03 = assay: as above
HLA-C*05:01 = assay: IEDB peptide-MHC binding, purified MHC/direct/fluorescence; filed as Kd, often an IC50 or EC50 that approximates it; ≥ and ≤ were set here for values at or beyond the usual limits of such assays
HLA-B*15:09 = assay: as above
HLA-B*18:01 [6] = assay: as above; conditions: source organism: Influenza A virus (A/Viet Nam/HN/2004(H5N1))
HLA-A*02:11 [7] = assay: as above; conditions: source organism: Bacillus cereus NVH0597-99
HLA-B*39:01 = assay: as above; conditions: source organism: Bacillus cereus NVH0597-99
HLA-B*57:01 [8] = assay: IEDB peptide-MHC binding, purified MHC/competitive/fluorescence; filed as Kd, often an IC50 or EC50 that approximates it; ≥ and ≤ were set here for values at or beyond the usual limits of such assays; conditions: source organism: Human immunodeficiency virus 1
HLA-A*30:01 = assay: as above; conditions: source organism: Human immunodeficiency virus 1
HLA-A*01:01 [9] = assay: as above; conditions: source organism: Human immunodeficiency virus 1
HLA-B*15:01 [10] = assay: as above; conditions: source organism: Human immunodeficiency virus 1
[11] = source organism: Influenza A virus (A/ruddy turnstone/NJ/60/1985(N9))
[12] = source organism: Influenza A virus
[13] = source organism: Influenza A virus (A/tiger/Thailand/CU-LV/2004(H5N1))
[14] = source organism: Influenza A virus (A/Puerto Rico/8/34/Mount Sinai(H1N1))
[15] = source organism: H9N2 subtype Influenza A virus (A/swine/Korea/S81/2004(H9N2))
[16] = source organism: Pasteurella multocida subsp. multocida str. Pm70
[17] = source organism: Pasteurella multocida
[18] = source organism: Influenza A virus (A/equine/New York/1/1999(H3N8))
[19] = source organism: Influenza A virus(A/swine/Shandong/fNY/2003(H9N2))
[20] = source organism: Influenza A virus (A/Viet Nam/HN/2004(H5N1))
[21] = source organism: Influenza A virus(A/swine/Henan/3/2004(H9N2))
[22] = source organism: Human immunodeficiency virus 1

DWSGYSGSF
Kd (HLA-A*26:02; [11]): 3.45 µM
Kd (HLA-B*18:01 [1]; [11]): ≥ 20 µM
Kd (HLA-B*15:17; [11]): 1.24 µM
Kd (HLA-B*40:01; [12]): ≥ 20 µM
Kd (HLA-B*27:05; [12]): ≥ 20 µM
Kd (HLA-B*07:02; [12]): ≥ 20 µM
Kd (HLA-B*57:01 [2]): ≥ 20 µM
Kd (HLA-A*23:01): 0.175 µM
Kd (HLA-B*08:01; [12]): ≥ 20 µM
Kd (HLA-B*58:01; [12]): ≥ 20 µM
Kd (HLA-A*69:01; [12]): ≥ 20 µM
Kd (HLA-A*26:01; [13]): ≥ 20 µM
Kd (HLA-A*68:02): ≥ 20 µM
Kd (HLA-A*11:01; [12]): ≥ 20 µM
Kd (HLA-B*46:01; [12]): ≥ 20 µM
Kd (HLA-A*02:01; [12]): ≥ 20 µM
Kd (HLA-A*24:03; [13]): 0.072 µM
Kd (HLA-A*31:01; [12]): ≥ 20 µM
Kd (HLA-A*24:02; [12]): 0.0875 µM
Kd (HLA-A*01:01 [3]; [12]): ≥ 20 µM
Kd (HLA-B*44:02; [12]): ≥ 20 µM
Kd (HLA-B*15:01 [4]; [14]): ≥ 10 µM
Kd (HLA-A*03:01; [12]): ≥ 20 µM

KAVRGDLNF
Kd (HLA-B*40:01; [15]): ≥ 20 µM
Kd (HLA-B*27:05; [15]): ≥ 20 µM
Kd (HLA-B*07:02; [15]): ≥ 20 µM
Kd (HLA-B*08:01; [15]): ≥ 20 µM
Kd (HLA-B*58:01; [15]): 0.093 µM
Kd (HLA-A*69:01; [15]): ≥ 20 µM
Kd (HLA-A*11:01; [15]): ≥ 20 µM
Kd (HLA-A*02:01; [15]): ≥ 20 µM
Kd (HLA-A*31:01; [15]): ≥ 20 µM
Kd (HLA-B*08:02; source organism: Influenza A virus(A/swine/Shandong/fZC/2003(H9N2))): ≥ 20 µM
Kd (HLA-A*24:02; [15]): ≥ 20 µM
Kd (HLA-A*01:01 [3]; [15]): ≥ 20 µM
Kd (HLA-B*44:02; [15]): ≥ 20 µM
Kd (HLA-B*15:01 [4]; [14]): 0.929 µM
Kd (HLA-A*03:01; [15]): ≥ 20 µM

LMAEDLANV
Kd (HLA-A*02:11 [5]): ≤ 0.0001 µM
Kd (HLA-A*02:12): ≤ 0.0001 µM
Kd (HLA-A*02:06; [16]): ≤ 0.0001 µM
Kd (HLA-A*02:03; [16]): ≤ 0.0001 µM
Kd (HLA-B*40:01; [17]): ≥ 20 µM
Kd (HLA-B*27:05; [17]): ≥ 20 µM
Kd (HLA-B*07:02; [17]): ≥ 20 µM
Kd (HLA-B*08:01; [17]): ≥ 20 µM
Kd (HLA-B*58:01; [17]): ≥ 20 µM
Kd (HLA-A*69:01; [17]): 0.0168 µM
Kd (HLA-A*26:01; [17]): ≥ 20 µM
Kd (HLA-A*11:01; [17]): ≥ 20 µM
Kd (HLA-A*02:01; [17]): 0.0472 µM
Kd (HLA-A*24:03; [17]): 11.4 µM
Kd (HLA-A*31:01; [17]): 2.58 µM
Kd (HLA-A*01:01 [3]; [17]): ≥ 20 µM
Kd (HLA-B*15:01 [4]; [17]): 7.69 µM
Kd (HLA-A*03:01; [17]): ≥ 20 µM

FFNVEIPEF
Kd (HLA-C*05:01; source organism: human gammaherpesvirus 4): ≥ 20 µM

RELVRKTRF
Kd (HLA-B*40:01; [14]): 0.35 µM
Kd (HLA-B*27:05; [18]): ≥ 20 µM
Kd (HLA-B*07:02; [18]): ≥ 20 µM
Kd (HLA-B*15:09; [19]): ≥ 20 µM
Kd (HLA-B*08:01; [18]): ≥ 20 µM
Kd (HLA-B*58:01; [18]): ≥ 20 µM
Kd (HLA-A*69:01; [18]): ≥ 20 µM
Kd (HLA-A*26:01; [19]): ≥ 20 µM
Kd (HLA-A*11:01; [18]): ≥ 20 µM
Kd (HLA-B*46:01; [18]): ≥ 20 µM
Kd (HLA-A*02:01; [18]): ≥ 20 µM
Kd (HLA-A*31:01; [18]): ≥ 20 µM
Kd (HLA-A*24:02; [18]): ≥ 20 µM
Kd (HLA-A*01:01 [3]; [18]): ≥ 20 µM
Kd (HLA-B*15:01 [4]; [14]): 1.58 µM
Kd (HLA-A*03:01; [18]): ≥ 20 µM

RRVRDNMTK
Kd (HLA-B*40:01; [20]): ≥ 20 µM
Kd (HLA-B*27:05; [14]): 0.45 µM
Kd (HLA-B*07:02; [20]): ≥ 20 µM
Kd (HLA-B*08:01; [20]): ≥ 20 µM
Kd (HLA-B*58:01; [20]): ≥ 20 µM
Kd (HLA-B*18:01 [6]): ≥ 20 µM
Kd (HLA-A*69:01; [20]): ≥ 20 µM
Kd (HLA-A*26:01; [21]): ≥ 20 µM
Kd (HLA-A*11:01; [20]): ≥ 20 µM
Kd (HLA-B*46:01; [20]): ≥ 20 µM
Kd (HLA-A*02:01; [20]): ≥ 20 µM
Kd (HLA-B*08:02; [21]): ≥ 20 µM
Kd (HLA-A*24:02; [20]): ≥ 20 µM
Kd (HLA-A*01:01 [3]; [20]): ≥ 20 µM
Kd (HLA-B*44:02; [20]): ≥ 20 µM
Kd (HLA-B*15:01 [4]; [20]): ≥ 20 µM
Kd (HLA-A*03:01; [20]): ≥ 20 µM

YNDWEGNEL
Kd (HLA-B*15:09; source organism: Bacillus cereus NVH0597-99): 3.92 µM
Kd (HLA-A*02:11 [7]): ≥ 20 µM
Kd (HLA-B*39:01): 0.598 µM
Kd (HLA-C*05:01; source organism: Bacillus anthracis str. A0193): 0.095 µM

RSLYNTIATLY
Kd (HLA-A*26:02; [22]): 0.921 µM
Kd (HLA-B*57:01 [8]): 0.128 µM
Kd (HLA-B*18:01 [1]; [22]): 0.119 µM
Kd (HLA-A*30:01): ≥ 20 µM
Kd (HLA-A*02:06; [22]): ≥ 20 µM
Kd (HLA-A*01:01 [9]): 1.65 µM
Kd (HLA-A*02:03; [22]): 0.722 µM
Kd (HLA-B*15:17; [22]): 0.0007 µM
Kd (HLA-B*15:01 [10]): 0.103 µM
